Assay results: patent publication US6340461B1 (priority 1996, dated 2002)

Experiments:
[1] = target: T cell receptor Vβ12 on murine tumor-draining lymph node T cells (mouse); assay: cell-based or functional assay
[2] = target: T cell receptor Vβ6 on murine tumor-draining lymph node T cells (mouse); assay: cell-based or functional assay
[3] = target: T cell receptor Vβ8.2 on murine T cells (mouse); assay: cell-based or functional assay
[4] = target: T cell receptor Vβ8.3 on murine T cells (mouse); assay: cell-based or functional assay
[5] = target: T cell receptor Vβ13 on murine tumor-draining lymph node T cells (mouse); assay: cell-based or functional assay
[6] = target: T cell receptor Vβ3 on murine T cells (mouse); assay: cell-based or functional assay
[7] = target: T cell receptor Vβ9 on murine tumor-draining lymph node T cells (mouse); assay: cell-based or functional assay
[8] = target: T cell receptor Vβ7 on murine tumor-draining lymph node T cells (mouse); assay: cell-based or functional assay
[9] = target: T cell receptor Vβ5.1, 5.2 on murine tumor-draining lymph node T cells (mouse); assay: cell-based or functional assay
[10] = target: T cell receptor Vβ14 on murine tumor-draining lymph node T cells (mouse); assay: cell-based or functional assay
[11] = target: T cell receptor Vβ11 on murine tumor-draining lymph node T cells (mouse); assay: cell-based or functional assay
[12] = target: T cell receptor Vβ8.1 on murine T cells (mouse); assay: cell-based or functional assay
[13] = target: T cell receptor Vβ2 on murine tumor-draining lymph node T cells (mouse); assay: cell-based or functional assay
[14] = target: T cell receptor Vβ17 on murine tumor-draining lymph node T cells (mouse); assay: cell-based or functional assay
[15] = parameters: species or system New Zealand white rabbits; conditions: rabbit, in vivo
[16] = parameters: species or system baboons; conditions: in vivo, sc

staphylococcal enterotoxin B (SEB) (from UniProt P01552 28-266)
% of Total T Cells (Vβ use of tumor-draining LN T cells stimulated with SEB) [1]: 0%
% of Total T Cells (Vβ use of tumor-draining LN T cells stimulated with SEB) [2]: 0%
% of Total T Cells (Vβ use of tumor-draining LN T cells stimulated with SEB) [3]: 15%
% of Total T Cells (Vβ use of tumor-draining LN T cells stimulated with SEB) [4]: 19.8%
% of Total T Cells (Vβ use of tumor-draining LN T cells stimulated with SEB) [5]: < 1%
% of Total T Cells (Vβ use of tumor-draining LN T cells stimulated with SEB) [6]: 32.5%
% of Total T Cells (Vβ use of tumor-draining LN T cells stimulated with SEB) [7]: 0%
% of Total T Cells (Vβ use of tumor-draining LN T cells stimulated with SEB) [8]: < 1%
% of Total T Cells (Vβ use of tumor-draining LN T cells stimulated with SEB) [9]: 1.2%
% of Total T Cells (Vβ use of tumor-draining LN T cells stimulated with SEB) [10]: 0%
% of Total T Cells (Vβ use of tumor-draining LN T cells stimulated with SEB) [11]: 2.9%
% of Total T Cells (Vβ use of tumor-draining LN T cells stimulated with SEB) [12]: 4.8%
% of Total T Cells (Vβ use of tumor-draining LN T cells stimulated with SEB) [13]: 0%

Staphylococcus aureus enterotoxin A (SEA) (from UniProt P0A0L2 25-257)
% of Total T Cells (Vβ use of tumor-draining LN T cells stimulated with SEA) [1]: 7.4%
% of Total T Cells (Vβ use of tumor-draining LN T cells stimulated with SEA) [2]: < 1%
% of Total T Cells (Vβ use of tumor-draining LN T cells stimulated with SEA) [3]: 1.5%
% of Total T Cells (Vβ use of tumor-draining LN T cells stimulated with SEA) [5]: 1.5%
% of Total T Cells (Vβ use of tumor-draining LN T cells stimulated with SEA) [6]: 29.9%
% of Total T Cells (Vβ use of tumor-draining LN T cells stimulated with SEA) [7]: 0%
% of Total T Cells (Vβ use of tumor-draining LN T cells stimulated with SEA) [8]: < 1%
% of Total T Cells (Vβ use of tumor-draining LN T cells stimulated with SEA) [9]: < 1%
% of Total T Cells (Vβ use of tumor-draining LN T cells stimulated with SEA) [10]: < 1%
% of Total T Cells (Vβ use of tumor-draining LN T cells stimulated with SEA) [14]: 0%
% of Total T Cells (Vβ use of tumor-draining LN T cells stimulated with SEA) [11]: 34.3%
% of Total T Cells (Vβ use of tumor-draining LN T cells stimulated with SEA) [13]: < 1%

CC(C)Cc1ccc(C(C)C(=O)O)cc1 (stereo not drawn) [Ibuprofen]
effect on SEB induced fever and anorexia [15]: reduced febrile responses exceeding 105° F. and shortened the period of anorexia and inanition
effect on SEB induced anorexia and malaise [16]: abrogate some of the anorexia and malaise
